Experimental data from the supplement of paper PMC11908140.

B1: library; numbered along this chain (parent)
chain: MRKPRAAVGSGHRKQAASQEGRQKHAKNNSQAKPSACDGLARQPEEVVLQASVSSYHLFRDVAEVTAFRGSLLSWYDQEKRDLPWRRRAEDEMDLDRRAYAVWVSEVMLQQTQVATVINYYTGWMQKWPTLQDLASASLEEVNQLWAGLGYYSRGRRLQEGARKVVEELGGHMPRTAETLQQLLPGVGRYTAGAIASIAFGQATGVVDGNVARVLCRVRAIGADPSSTLVSQQLWGLAQQLVDPARPGDFNQAAMELGATVCTPQRPLCSQCPVESLCRARQRVEQEQLLASGSLSGSPDVEECAPNTGQCHLCLPPSEPWDQTLGVVNFPRKASRKPPREESSATCVLEQPGALGAQILLVQRPNSGLLAGLWEFPSVTWEPSEQLQRKALLQELQRWAGPLPATHLRHLGEVVHTFSHIKLTYQVYGLALEGQTPVTTVPPGARWLTQEEFHTAAVSTAMKKVFRVYQGQQPGTCMGSKRSQVSSPCSRKKPRMGQQVLDNFFRSHISTDAHSLNSAAQ

Variants of: B1
Experiment: 8OG:A repair function score (normalized; synonymous = 0, nonsense = -1) (normalized log-likelihood score); higher = more repair activity (WT-like)
Conditions: with 8OG:A DNA repair reporter (GFP) in HEK-293 MUTYH KO cells
How it was run: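 MUTYH knockout HEK-293 cells carrying lentiviral MUTYH cDNA NNN codon-scan libraries were grown with 10 pg/ml doxycycline and co-transfected with mCherry and a GFP reporter of 8OG:A repair. Viable mCherry+ cells were sorted at 72 h into GFP+ (repair) and GFP− bins, with three replicates per tile, and tile amplicons were sequenced. Rosace fitness scores for each tile were turned into a normalized repair function score anchored on the synonymous and nonsense distributions. Synonymous medians were set to 0 and nonsense medians to -1, and variants below 300 counts per million at the start were dropped.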

8OG:A repair function score of substitutions, site by site:
Q397: S -0.159; E -0.364; W 0.284; V 0.0994; G -0.363; M -0.301; D -0.0883; A -0.314; H -0.717; R -0.206; L -0.101; I -0.624; P -0.645; C -0.496; Y -0.0393; T -0.463; K -0.304; F 0.0272
E385: M 0.0941; Q 0.29; V -0.0807; L 0.0198; H -0.135; A 0.0147; N -0.0672; S -0.167; P -0.17; R -0.0734; K -0.468; Y -0.00387; I 0.197; D 0.0907; W 0.109; C 0.258; G -0.126; F -0.34; T -0.24
A391: G -0.201; W -0.428; P -0.305; M -0.279; T -0.42; D -0.378; K -0.22; V 0.0327; S -0.175; I 0.114; E -0.106; L -0.101; R -0.136; C -0.0464; Q -0.0188; F 0.112; Y -0.00342; N -0.196
L392: E -1.11; V -0.289; R -1.02; A -0.807; F -0.647; K -1.03; G -0.896; D -0.872; H -0.963; P -1.09; Q -0.839; N -1.52; C -0.389; Y -0.624; W -1.27; S -1.04; I 0.0377; M -0.171; T -0.777
R389: G -0.385; Y -0.0127; I 0.462; H -0.403; P -0.583; A -0.241; T 0.1; F -0.357; W -0.531; K -0.274; E -0.116; L -0.04; N -0.415; V 0.273; Q -0.613; S -0.117; D -0.426; M -0.236; C -0.13
L396: D -1.33; P -0.766; Q -0.673; G -0.426; W -0.581; K -1.03; V -0.026; A -0.329; I -0.113; F -0.431; S -0.52; E -1.07; C -0.199; T -0.534; R -0.992; M -0.451; N -0.969; H -0.886; Y -1.21
K390: E -0.0669; P -0.262; G -0.0253; Y -0.199; T -0.141; V -0.164; W -0.444; C 0.0921; D 0.0762; R -0.126; S 0.0865; Q 0.474; L -0.0847; M -0.0263; I -0.265; F -0.0738; N 0.177; A -0.201; H 0.403
Q394: H 0.21; Y -0.129; P -0.467; D 0.0938; K -0.158; W -0.387; T -0.314; F -0.00248; I -0.343; N 0.483; M -0.148; V -0.209; C -0.273; A 0.04; L -0.0272; E 0.261; G 0.266; R -0.0703; S -0.0073
P383: D 0.0298; G -0.0743; T 0.0211; I -0.14; R 0.0404; F -0.202; V -0.163; S -0.0364; E 0.0397; K -0.1; A 0.0723; N -0.294; Y -0.0911; H 0.0207; L -0.0053; C -0.0431; Q 0.0121; M -0.333; W -0.185
E382: R -0.0901; Q 0.185; G -0.0795; V 0.0267; C -0.16; Y 0.217; L 0.0169; D -0.0303; P 0.149; M 0.019; I -0.0196; T 0.196; S 0.000352; H 0.042; K -0.213; A -0.0399; N 0.0107; W 0.0332; F 0.0805
W381: N 0.268; V 0.0132; S -0.174; Q 0.126; P -0.215; R -0.0405; Y -0.0016; T 0.0347
R398: D -0.249; M 0.0969; G -0.102; K -0.0169; C -0.0446; P -0.556; E -0.407; H 0.0204; V -0.2; F 0.214; N -0.285; I -0.416; Q -0.525; S -0.426; T -0.326; A 0.0255; L -0.263; W -0.973; Y 0.174
W399: C 0.313; E -0.679; A -0.229; D -0.666; G -0.541; F -0.284
Q386: L 0.304; V -0.383; H 0.241; C 0.0105; N 0.0466; R 0.0701; T -0.191; W 0.351; M 0.34; G 0.0232; D -0.076; Y 0.41; I 0.129; A 0.0488; P -0.219; E -0.0345; S -0.0961; K -0.213; F -0.144
Q388: L 0.511; K -0.55; V 0.063; H -0.356; Y -0.235; C -0.459; S -0.201; E -0.368; F -0.281; M -0.052; W -0.0946; A 0.235; N 0.244; R 0.206; D 0.0946; T -0.108; G -0.34; P 0.145; I 0.175
L387: E -0.0756; I 0.125; P -0.26; F -0.293; Y -0.136; R -0.0979; K 0.00861; W -0.0182; T 0.0729; V -0.0288; A -0.21; G -0.154; Q 0.0651; D 0.259; N -0.167; H -0.744; S 0.154; C -0.171; M 0.0425
E395: A -0.162; T -0.194; Q -0.276; C -0.217; F -0.476; H -0.214; K -0.345; P -0.546; I -0.133; D -0.291; N -0.302; R -0.122; G -0.277; Y -0.0134; W -0.193; V -0.0171; M -0.253; L -0.23; S 0.0493
L393: E -0.395; N -1.03; D -0.369; I 0.0907; A -0.295; H 0.25; C -0.00132; P -0.792; G -0.22; F -0.244; S -0.405; M 0.297; Y -0.503; T -0.383; R 0.00361; V -0.37; W -0.266; K -0.0987; Q 0.0615
S384: N -0.0929; L -0.000173; M -0.315; Y -0.227; P -0.218; A 0.0362; Q -0.345; F 0.0338; I 0.0514; R -0.115; G 0.138; T -0.0483; C -0.202; H -0.0587; D 0.201; E 0.0681; K -0.0507; V -0.0122
